According to patent US20250376536A1 (Bristol-Myers Squibb, published 2025):

Assays:
[1] = biological target: T1, mouse CD40 protein (mouse, UniProt P27512 20-193, limits assumed); assay: SPR
T1 sequence (looked up): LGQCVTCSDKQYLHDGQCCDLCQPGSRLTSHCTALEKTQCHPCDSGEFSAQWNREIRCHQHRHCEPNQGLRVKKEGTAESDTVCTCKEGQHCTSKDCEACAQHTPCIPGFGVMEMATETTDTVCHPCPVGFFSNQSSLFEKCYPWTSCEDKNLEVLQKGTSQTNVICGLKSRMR

[2] = biological target: T2, mouse FAP protein (mouse, UniProt P97321 26-761); assay: SPR
T2 sequence (looked up): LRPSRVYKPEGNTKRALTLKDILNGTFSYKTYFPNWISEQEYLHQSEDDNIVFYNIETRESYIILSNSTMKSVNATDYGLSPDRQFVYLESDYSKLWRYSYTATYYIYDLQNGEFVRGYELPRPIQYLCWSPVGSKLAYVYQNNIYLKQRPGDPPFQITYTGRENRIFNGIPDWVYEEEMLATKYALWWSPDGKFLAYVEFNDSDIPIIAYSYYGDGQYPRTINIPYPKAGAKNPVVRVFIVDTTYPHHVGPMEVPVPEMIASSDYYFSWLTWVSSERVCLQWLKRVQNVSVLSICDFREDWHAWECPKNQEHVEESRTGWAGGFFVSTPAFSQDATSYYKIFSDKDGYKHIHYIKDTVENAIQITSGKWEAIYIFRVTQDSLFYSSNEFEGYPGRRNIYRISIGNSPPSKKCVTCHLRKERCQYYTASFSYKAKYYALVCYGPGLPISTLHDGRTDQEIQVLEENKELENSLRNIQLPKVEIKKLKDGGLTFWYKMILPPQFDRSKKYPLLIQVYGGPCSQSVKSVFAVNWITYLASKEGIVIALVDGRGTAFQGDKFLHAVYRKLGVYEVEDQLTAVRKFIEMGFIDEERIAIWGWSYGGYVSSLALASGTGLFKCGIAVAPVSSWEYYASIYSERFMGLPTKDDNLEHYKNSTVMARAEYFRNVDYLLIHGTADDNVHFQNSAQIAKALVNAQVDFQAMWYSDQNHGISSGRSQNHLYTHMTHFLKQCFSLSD

[3] = biological target: T3, mouse CD40 on cells (mouse, UniProt P27512 20-289); assay: cell-based or functional assay
T3 sequence (looked up): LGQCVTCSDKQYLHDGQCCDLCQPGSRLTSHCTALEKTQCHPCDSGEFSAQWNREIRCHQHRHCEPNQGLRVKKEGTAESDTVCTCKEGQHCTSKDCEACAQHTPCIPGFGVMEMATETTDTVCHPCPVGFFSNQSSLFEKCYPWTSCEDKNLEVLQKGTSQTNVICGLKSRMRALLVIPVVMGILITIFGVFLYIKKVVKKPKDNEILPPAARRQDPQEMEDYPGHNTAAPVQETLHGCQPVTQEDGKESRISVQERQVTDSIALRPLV

[4] = biological target: T3, mouse CD40 on cells; assay: binding to mouse CD40-positive B cells
[5] = biological target: T4, mouse FAP on HEK cells (mouse, UniProt P97321 1-761); assay: binding to mouse FAP-positive HEK cells
T4 construct: whole, on cells; also called Mouse FAP-positive HEK cells; mouse FAP-expressing HEK cells
T4 sequence (looked up): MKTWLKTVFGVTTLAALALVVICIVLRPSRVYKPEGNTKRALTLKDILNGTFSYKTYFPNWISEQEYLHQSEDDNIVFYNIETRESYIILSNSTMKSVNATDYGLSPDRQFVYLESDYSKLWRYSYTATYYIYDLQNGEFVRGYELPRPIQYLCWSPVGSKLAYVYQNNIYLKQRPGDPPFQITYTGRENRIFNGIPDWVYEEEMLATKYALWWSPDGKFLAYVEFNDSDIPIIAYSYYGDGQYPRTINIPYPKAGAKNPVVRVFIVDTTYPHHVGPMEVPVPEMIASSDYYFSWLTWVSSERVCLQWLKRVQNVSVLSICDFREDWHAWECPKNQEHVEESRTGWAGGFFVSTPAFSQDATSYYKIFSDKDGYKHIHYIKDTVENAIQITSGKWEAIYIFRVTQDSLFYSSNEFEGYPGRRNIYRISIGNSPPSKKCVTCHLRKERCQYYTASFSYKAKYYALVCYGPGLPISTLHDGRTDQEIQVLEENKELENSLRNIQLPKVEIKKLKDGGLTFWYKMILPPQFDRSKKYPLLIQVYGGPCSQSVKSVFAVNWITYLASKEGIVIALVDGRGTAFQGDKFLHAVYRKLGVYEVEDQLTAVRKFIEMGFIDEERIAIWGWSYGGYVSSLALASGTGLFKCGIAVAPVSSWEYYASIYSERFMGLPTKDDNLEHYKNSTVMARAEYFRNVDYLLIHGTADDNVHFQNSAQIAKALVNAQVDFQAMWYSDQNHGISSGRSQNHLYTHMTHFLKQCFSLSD

[6] = biological target: T3, mouse CD40 on cells; assay: binding to mouse CD40-positive macrophages

Kd [1]: 45.8 nM | Kd [2]: 3.4 nM | CCL22 secretion, murine BMDM + MC38-FAP co-culture, EC50 [3]: 1.02 nM | IL12p40 secretion, murine BMDM + MC38-FAP co-culture, EC50 [3]: 1.43 nM | EC50 [4]: 12.1 nM | EC50 [5]: 3.17 nM | EC50 [6]: 7.3 nM
B1: mCD40×FAP.LP62 (2+1 anti-mouse CD40×FAP bispecific antibody) (bispecific antibody)
chain: EVQLLESGGGLVQPGGSLRLSCAASGFTFSSRGMSWVRQAPGKCLEWVSFISSSGTYVYYADSVKGRFTISRDNSKNTLYLQMNSLRAEDTAVYYCARDLPRTGVYFGMDVWGQGTTVTVSSGGGGSGGGGSGGGGSGGGGSDIQMTQSPSSLSASVGDRVTITCRASQSIFNYLNWYQQKPGKAPKLLIYGASTLQSGVPSRFSGSGSGTDFTLTISSLQPEDFATYYCQESYSTPYTFGCGTKVEIK
